Results reported in publication PMC6994067.

Key:
Experiment in all cases: NMR
Settings in all cases: 25 °C, not stated (10 mM citrate-phosphate buffer; no added salt mentioned), folded, free protein, 1 mM
Asp82 = Asp82 (UniProt position 103, HAAPEDKYEAF)
Asp14 = Asp14 (UniProt position 35, QKLIEDVNASF)
Glu93 = Glu93 (UniProt position 114, VLHFSEALRII)
Asp65 = Asp65 (UniProt position 86, LVPKLDEVYNA)
Glu66 = Glu66 (UniProt position 87, VPKLDEVYNAA)
Asp33 = Asp33 (UniProt position 54, NVPPADKYKTF)
Glu103 = Glu103 (UniProt position 124, IAGTPEVHAVK)
Glu13 = Glu13 (UniProt position 34, EQKLIEDVNAS)
Glu85 = Glu85 (UniProt position 106, PEDKYEAFVLH)
Asp52 = Asp52 (UniProt position 73, KRNLADAVSKA)
His77 = His77 (UniProt position 98, YNAADHAAPED)
His90 = His90 (UniProt position 111, EAFVLHFSEAL)
Glu39 = Glu39 (UniProt position 60, KYKTFEAAFTV)
Glu81 = Glu81 (UniProt position 102, DHAAPEDKYEA)
Glu8 = Glu8 (UniProt position 29, KATTEEQKLIE)
Glu7 = Glu7 (UniProt position 28, GKATTEEQKLI)
Asp76 = Asp76 (UniProt position 97, AYNAADHAAPE)
His105 = His105 (UniProt position 126, GTPEVHAVKPG)

Pollen allergen Phl p 6 (Phleum pratense (timothy grass))
pKa (Asp82): 3.06 | pKa (Asp14): 3.50 | pKa (Glu93): 4.21 | pKa (Asp65): 4.80 | pKa (Glu66): 4.06 | pKa (Asp33): 3.38 | pKa (Glu103): 3.65 | pKa (Glu13): 3.80 | pKa (Glu85): 4.59 | pKa (Asp52): 2.4 | pKa (His77): 7.4 | pKa (His90): 7.3 | pKa (Glu39): 4.84 | pKa (Glu81): 3.52 | pKa (Glu8): 3.19 | pKa (Glu7): 4.25 | pKa (Asp76): 3.50 | pKa (His105): 6.5
